Assays:
[1] = Kinetic assay of purified DAOCS with penicillin G (standard penicillin G assay, HPLC of cephalosporin G); assay type: biochemical; conditions: for penicillin G, 20 μg purified DAOCS, 1 mM α-ketoglutarate, 30° C.; for Km: triplicate, Hanes-Woolf Plot
Description: For penicillin G, 20 μl of cell extracts was added into a standard 200 μl assay reaction containing 50 mM Mops/pH 7.5, 4 mM ascorbate, 1 mM FeSO4, 4 mM α-ketoglutarate and 7 mM penicillin G, and incubated at 30° C. for 20 minutes. The reaction was stopped by addition of 200 μl of ethanol, followed by a centrifugation at 15,000×g for 5 minutes. The concentration of cephalosporin G in supernatant was analyzed by HPLC with 40 μl injection. The mobile phase was 25 mM potassium phosphate/pH 6.5 with 19% acetonitrile at a flow rate of 1 ml/min. The retention time for cephalosporin G was 8.5 minutes and 12.5 minutes for penicillin G with detection at 215 nm, and the product at 8.5 minutes in DAOCS reaction was confirmed by ESI-LC/MS (positive): [M+H]^+=333. […] The different combinations of the mutated amino acids mentioned above were also constructed by site-directed mutagenesis.
(§1) The cell extract (2 ml) of a candidate mutant was applied onto a HiTrap Q column (5 ml) pre-equilibrated with buffer B (50 mM Mops/pH 7.5, 1 mM DTT, 0.4 mM pefabloc SC, and 0.5 μg/ml leupeptin). Then, the column was washed with 20 ml of buffer B, followed by a further wash with 25 ml of buffer B containing 120 mM NaCl, and DAOCS was eluted off with 20 ml of buffer B containing 150 mM NaCl. The DAOCS containing fractions were pooled (10 ml), concentrated by UF 15 device (NMWL 5K; Millipore), and loaded onto a Hiload Superdex 75 (16/60) column pre-equilibrated with buffer B at a flow rate of 1 ml/min.
(§2) The standard penicillin G assay was followed for kinetic assay, but 20 μg of purified DAOCS was used and the concentration of α-ketoglutarate was reduced to 1 mM. Kinetic parameters were obtained from triplicate experiments by Hanes-Woolf Plot. For assays using penicillin N as a main substrate, a total volume of 240 μl reaction containing 50 mM Hepes/pH 7.5, 0.4 mM ascorbate, 0.1 mM FeSO4, 0.1 mM α-ketoglutarate, 0.1 mM penicillin N and 0.5 μg of purified DAOCS was incubated at 30° C. for 10 minutes, then the same volume of 10 mM EDTA/pH 7.5 was added, and the mixture was subjected to ultrafiltration with UF 0.5 device (NMWL 5000, Millipore). The filtrate was analyzed by HPLC using 25 mM potassium phosphate/pH 6.5 as a mobile phase. The retention time of DAOC and penicillin N was 12 minutes and 13.5 minutes, respectively The results of kinetic parameters are shown in Table 1, wherein the definition and calculation of the parameters are described in Lehninger et al. Principles of Biochemistry, 2nd Ed. Worth Publishers, New York (1993) which is incorporated herein for reference.

[2] = Kinetic assay of purified DAOCS with penicillin N as main substrate; assay type: biochemical; conditions: for penicillin N, 0.5 μg purified DAOCS, 30° C., 10 minutes; for Km: triplicate, Hanes-Woolf Plot
Description: as §1, §2

Row | Molecule | kcat [1] [S^−1] | Km [1] [µM] | kcat [2] [S^−1] | Km [2] [µM]
1 | YS125: mutated DAOCS with substitution N304L as disclosed in Chin H. S. et al (protein, UniProt P18548 1-311, looked up, variant N304L) Deacetoxycephalosporin C …: MDTTVPTFSLAELQQGLHQDEFRRCLRDKGLFYLTDCGLTDTELKSAKDLVIDFFEHGSEAEKRAVTSPVPTMRRGFTGLESESTAQITNTGSYSDYSMCYSMGTADNLFPSGDFERIWTQYFDRQYTASRAVAREVLRATGTEPDGGVEAFLDCEPLLRFRYFPQVPEHRSAEEQPLRMAPHYDLSMVTLIQQTPCANGFVSLQAEVGGAFTDLPYRPDAVLVFCGAIATLVTGGQVKAPRHHVAAPRRDQIAGSSRTSSVFFLRPNADFTFSVPLARECGFDVSLDGETATFQDWIGGNYVLIRRTSKA | 0.0402 ± 0.0006 | 550 ± 120 | 0.415 ± 0.063 | 18 ± 4
2 | YS53: mutated penicillin expandase (DAOCS) with substitution C281Y (protein, UniProt P18548 1-311, looked up, variant C281Y) Deacetoxycephalosporin C …: MDTTVPTFSLAELQQGLHQDEFRRCLRDKGLFYLTDCGLTDTELKSAKDLVIDFFEHGSEAEKRAVTSPVPTMRRGFTGLESESTAQITNTGSYSDYSMCYSMGTADNLFPSGDFERIWTQYFDRQYTASRAVAREVLRATGTEPDGGVEAFLDCEPLLRFRYFPQVPEHRSAEEQPLRMAPHYDLSMVTLIQQTPCANGFVSLQAEVGGAFTDLPYRPDAVLVFCGAIATLVTGGQVKAPRHHVAAPRRDQIAGSSRTSSVFFLRPNADFTFSVPLAREYGFDVSLDGETATFQDWIGGNYVNIRRTSKA | 0.0744 ± 0.0033 | 680 ± 340 | 0.273 ± 0.014 | 6 ± 1
3 | YS115: mutated penicillin expandase (DAOCS) with substitution M73T (protein, UniProt P18548 1-311, looked up, variant M73T) Deacetoxycephalosporin C …: MDTTVPTFSLAELQQGLHQDEFRRCLRDKGLFYLTDCGLTDTELKSAKDLVIDFFEHGSEAEKRAVTSPVPTTRRGFTGLESESTAQITNTGSYSDYSMCYSMGTADNLFPSGDFERIWTQYFDRQYTASRAVAREVLRATGTEPDGGVEAFLDCEPLLRFRYFPQVPEHRSAEEQPLRMAPHYDLSMVTLIQQTPCANGFVSLQAEVGGAFTDLPYRPDAVLVFCGAIATLVTGGQVKAPRHHVAAPRRDQIAGSSRTSSVFFLRPNADFTFSVPLARECGFDVSLDGETATFQDWIGGNYVNIRRTSKA | 0.0627 ± 0.0021 | 740 ± 160 | 0.239 ± 0.009 | 6 ± 3
4 | YS103: mutated penicillin expandase (DAOCS) with substitution M188V (protein, UniProt P18548 1-311, looked up, variant M188V) Deacetoxycephalosporin C …: MDTTVPTFSLAELQQGLHQDEFRRCLRDKGLFYLTDCGLTDTELKSAKDLVIDFFEHGSEAEKRAVTSPVPTMRRGFTGLESESTAQITNTGSYSDYSMCYSMGTADNLFPSGDFERIWTQYFDRQYTASRAVAREVLRATGTEPDGGVEAFLDCEPLLRFRYFPQVPEHRSAEEQPLRMAPHYDLSVVTLIQQTPCANGFVSLQAEVGGAFTDLPYRPDAVLVFCGAIATLVTGGQVKAPRHHVAAPRRDQIAGSSRTSSVFFLRPNADFTFSVPLARECGFDVSLDGETATFQDWIGGNYVNIRRTSKA | 0.0456 ± 0.0016 | 760 ± 170 | 0.084 ± 0.002 | 47 ± 0.5
5 | YS110: mutated penicillin expandase (DAOCS) with substitution Y184H (protein, UniProt P18548 1-311, looked up, variant Y184H) Deacetoxycephalosporin C …: MDTTVPTFSLAELQQGLHQDEFRRCLRDKGLFYLTDCGLTDTELKSAKDLVIDFFEHGSEAEKRAVTSPVPTMRRGFTGLESESTAQITNTGSYSDYSMCYSMGTADNLFPSGDFERIWTQYFDRQYTASRAVAREVLRATGTEPDGGVEAFLDCEPLLRFRYFPQVPEHRSAEEQPLRMAPHHDLSMVTLIQQTPCANGFVSLQAEVGGAFTDLPYRPDAVLVFCGAIATLVTGGQVKAPRHHVAAPRRDQIAGSSRTSSVFFLRPNADFTFSVPLARECGFDVSLDGETATFQDWIGGNYVNIRRTSKA | 0.0798 ± 0.0012 | 950 ± 50 | 0.048 ± 0.005 | 295 ± 30
6 | YS87: mutated penicillin expandase (DAOCS) with substitution T91A (protein, UniProt P18548 1-311, looked up, variant T91A) Deacetoxycephalosporin C …: MDTTVPTFSLAELQQGLHQDEFRRCLRDKGLFYLTDCGLTDTELKSAKDLVIDFFEHGSEAEKRAVTSPVPTMRRGFTGLESESTAQITNAGSYSDYSMCYSMGTADNLFPSGDFERIWTQYFDRQYTASRAVAREVLRATGTEPDGGVEAFLDCEPLLRFRYFPQVPEHRSAEEQPLRMAPHYDLSMVTLIQQTPCANGFVSLQAEVGGAFTDLPYRPDAVLVFCGAIATLVTGGQVKAPRHHVAAPRRDQIAGSSRTSSVFFLRPNADFTFSVPLARECGFDVSLDGETATFQDWIGGNYVNIRRTSKA | 0.0522 ± 0.0004 | 1360 ± 90 | 0.247 ± 0.006 | 9 ± 0.5
7 | YS59: mutated penicillin expandase (DAOCS) with substitution G79E (protein, UniProt P18548 1-311, looked up, variant G79E) Deacetoxycephalosporin C …: MDTTVPTFSLAELQQGLHQDEFRRCLRDKGLFYLTDCGLTDTELKSAKDLVIDFFEHGSEAEKRAVTSPVPTMRRGFTELESESTAQITNTGSYSDYSMCYSMGTADNLFPSGDFERIWTQYFDRQYTASRAVAREVLRATGTEPDGGVEAFLDCEPLLRFRYFPQVPEHRSAEEQPLRMAPHYDLSMVTLIQQTPCANGFVSLQAEVGGAFTDLPYRPDAVLVFCGAIATLVTGGQVKAPRHHVAAPRRDQIAGSSRTSSVFFLRPNADFTFSVPLARECGFDVSLDGETATFQDWIGGNYVNIRRTSKA | 0.0315 ± 0.0003 | 750 ± 20 | 0.178 ± 0.019 | 9 ± 3
8 | YS5: mutated penicillin expandase (DAOCS) with substitution V275I (protein, UniProt P18548 1-311, looked up, variant V275I) Deacetoxycephalosporin C …: MDTTVPTFSLAELQQGLHQDEFRRCLRDKGLFYLTDCGLTDTELKSAKDLVIDFFEHGSEAEKRAVTSPVPTMRRGFTGLESESTAQITNTGSYSDYSMCYSMGTADNLFPSGDFERIWTQYFDRQYTASRAVAREVLRATGTEPDGGVEAFLDCEPLLRFRYFPQVPEHRSAEEQPLRMAPHYDLSMVTLIQQTPCANGFVSLQAEVGGAFTDLPYRPDAVLVFCGAIATLVTGGQVKAPRHHVAAPRRDQIAGSSRTSSVFFLRPNADFTFSIPLARECGFDVSLDGETATFQDWIGGNYVNIRRTSKA | 0.0502 ± 0.0012 | 1680 ± 200 | 0.252 ± 0.020 | 12 ± 3
9 | EC12: mutated penicillin expandase (DAOCS) with substitution L277Q (protein, UniProt P18548 1-311, looked up, variant L277Q) Deacetoxycephalosporin C …: MDTTVPTFSLAELQQGLHQDEFRRCLRDKGLFYLTDCGLTDTELKSAKDLVIDFFEHGSEAEKRAVTSPVPTMRRGFTGLESESTAQITNTGSYSDYSMCYSMGTADNLFPSGDFERIWTQYFDRQYTASRAVAREVLRATGTEPDGGVEAFLDCEPLLRFRYFPQVPEHRSAEEQPLRMAPHYDLSMVTLIQQTPCANGFVSLQAEVGGAFTDLPYRPDAVLVFCGAIATLVTGGQVKAPRHHVAAPRRDQIAGSSRTSSVFFLRPNADFTFSVPQARECGFDVSLDGETATFQDWIGGNYVNIRRTSKA | 0.1036 ± 0.0012 | 1020 ± 20 | 0.297 ± 0.020 | 11 ± 1.5
10 | YS123: mutated penicillin expandase (DAOCS) with substitution H244Q (protein, UniProt P18548 1-311, looked up, variant H244Q) Deacetoxycephalosporin C …: MDTTVPTFSLAELQQGLHQDEFRRCLRDKGLFYLTDCGLTDTELKSAKDLVIDFFEHGSEAEKRAVTSPVPTMRRGFTGLESESTAQITNTGSYSDYSMCYSMGTADNLFPSGDFERIWTQYFDRQYTASRAVAREVLRATGTEPDGGVEAFLDCEPLLRFRYFPQVPEHRSAEEQPLRMAPHYDLSMVTLIQQTPCANGFVSLQAEVGGAFTDLPYRPDAVLVFCGAIATLVTGGQVKAPRHQVAAPRRDQIAGSSRTSSVFFLRPNADFTFSVPLARECGFDVSLDGETATFQDWIGGNYVNIRRTSKA | 0.0698 ± 0.0012 | 1390 ± 90 | 0.260 ± 0.006 | 9 ± 1.5

Source: patent US6905854B2, “Mutated penicillin expandase and process for preparing 7-ADCA using the same” (Synmax Biochemical Co., Ltd., priority 2002, dated 2005)
